Earlier results in patent publication US20080107649A1, “Immunogenic compositions of cyclic peptides derived from the beta-amyloid peptide” (Pevion Biotech Ltd., priority 2004, published 2008).

Conditions: human, in vivo

For “Aβ1-42: β-amyloid peptide of 42 amino acids (SEQ ID NO: 1), predominantly found in the plaques”, the “side effect of inoculation” value is given as “severe side effect of cerebral inflammation in some patients”.
